Data reported in article PMC4515032.

Target: mCherry-tagged mutant Htt exon 1 (HttQ91)
Assay: FRET or BRET

mean FRET efficiency: 16.3%
Substance: YFP-tagged wild-type Htt exon 1 (HttQ25) (domain or fragment)
